Test results taken from publication PMC10868842, “Structural basis of the recognition of adeno-associated virus by the neurological system-related receptor carbonic anhydrase IV” (PLOS Pathogens, 2024).
Changes are numbered by the printed parent chain. Names may count otherwise.

B1: Mus musculus carbonic anhydrase IV (Car4), amino acids W22 to S277 (receptor)
chain: WCYEIQTKDPRSSCLGPEKWPGACKENQQSPINIVTARTKVNPRLTPFILVGYDQKQQWPIKNNQHTVEMTLGGGACIIGGDLPARYEAVQLHLHWSNGNDNGSEHSIDGRHFAMEMHIVHKKLTSSKEDSKDKFAVLAFMIEVGDKVNKGFQPLVEALPSISKPHSTSTVRESSLQDMLPPSTKMYTYFRYNGSLTTPNCDETVIWTVYKQPIKIHKNQFLEFSKNLYYDEDQKLNMKDNVRPLQPLGKRQVFKS
notes: carbonic anhydrase IV (Car4), Mus musculus, residues 22-277 (W22 to S277); the functional rows use this molecule for Car4; also called wt Car4; truncated Car4 (22-277); not shown: GST, N-terminal, cleaved
B2: Car4 (22-277) V72S (mouse residue changed to its hCar4 counterpart) (receptor, Mus musculus, UniProt Q64444 22-277, looked up)
chain: B1 chain with V51S
notes: carbonic anhydrase IV (Car4), Mus musculus, residues 22-277; also called V72S_(Car4); source: E. coli BL21 (DE3), purified as the wild type; not shown: GST, N-terminal, cleaved
B3: Car4 (22-277) Q79A (receptor, Mus musculus, UniProt Q64444 22-277, looked up)
chain: B1 chain with Q58A
notes: carbonic anhydrase IV (Car4), Mus musculus, residues 22-277; also called Q79A_(Car4); source: E. coli BL21 (DE3), purified as the wild type; not shown: GST, N-terminal, cleaved
B4: Car4 (22-277) H187E (mouse residue changed to its hCar4 counterpart) (receptor, Mus musculus, UniProt Q64444 22-277, looked up)
chain: B1 chain with H166E
notes: carbonic anhydrase IV (Car4), Mus musculus, residues 22-277; also called H187E_(Car4); source: E. coli BL21 (DE3), purified as the wild type; not shown: GST, N-terminal, cleaved
B5: Car4 (22-277) T92A (receptor, Mus musculus, UniProt Q64444 22-277, looked up)
chain: B1 chain with T71A
notes: carbonic anhydrase IV (Car4), Mus musculus, residues 22-277; also called T92A_(Car4); source: E. coli BL21 (DE3), purified as the wild type; not shown: GST, N-terminal, cleaved
B6: Car4 (22-277) E90M (mouse residue changed to its hCar4 counterpart) (receptor, Mus musculus, UniProt Q64444 22-277, looked up)
chain: B1 chain with E69M
notes: carbonic anhydrase IV (Car4), Mus musculus, residues 22-277; also called E90M_(Car4); source: E. coli BL21 (DE3), purified as the wild type; not shown: GST, N-terminal, cleaved
B7: Car4 (22-277) I70A (receptor, Mus musculus, UniProt Q64444 22-277, looked up)
chain: B1 chain with I49A
notes: carbonic anhydrase IV (Car4), Mus musculus, residues 22-277; also called I70A_(Car4); source: E. coli BL21 (DE3), purified as the wild type; not shown: GST, N-terminal, cleaved

What follows are binders tested against T1, AAV9P31 capsid (adeno-associated virus 9 variant with the 7-mer WPTSYDA inserted in VP3 VR-VIII) (adeno-associated virus 9, UniProt Q6JC40 1-736, WPTSYDA inserted between Q588 and A589) (assay: cryo-EM structure; AAV9P31 on the grid, Car4 (W22-S277) added and incubated for 5 minutes; icosahedral reconstruction and block-based reconstruction of the 3-fold axis blocks). Conditions: both partners purified.
T1 construct: Assembled icosahedral virus particle carrying a GFP genome; capsids made from a RepCap plasmid usually hold VP1, VP2 and VP3 (surmise); also called AAV9P31 particles; AAV9P31 virion; source: HEK293T, triple-plasmid transfection, purified (iodixanol gradient ultracentrifugation)
With B1 the “stoichiometry N” value was ~3 Car4 per virion.

What follows are binders tested against T1, AAV9P31 capsid (adeno-associated virus …) (assay: SPR; BIAcore 8K; AAV9P31 particles immobilised on a CM5 chip by amide coupling (sodium acetate pH 4.0); WT or mutated Car4 proteins flowed over at 30 ul/min, 25 °C, PBST; regeneration with 10 mM glycine pH 2.0). Conditions: both partners purified.
B1 was tested, and the Kd was 106 nM.
Work on B2 yielded a Kd of 60.7 nM.
Work on B3 yielded a Kd of 292 nM.
Work on B4 yielded a Kd of 0.206 nM.
In the case of B5, the Kd is reported as 379 nM.
For B6, the Kd was 32.3 nM.
B7 was tested, and the Kd was 743 nM.
